One series concerns LexA. The experiment in a line: PIFE titration. The note with it: FRET (Gal4): 130 mM NaCl, 10 mM Tris-HCl pH 8, 0.01% Tween 20, 10% glycerol, 0.5 nM substrate, PIFE (LexA): 130 mM NaCl, 10 mM Tris pH 8, 10% glycerol, 0.005% ….
For series [1], the system named is Gal4(1-147) (Saccharomyces cerevisiae). The experiment in a line: ensemble FRET titration. Conditions: FRET (Gal4): 130 mM NaCl, 10 mM Tris-HCl pH 8, 0.01% Tween 20, 10% glycerol, 0.5 nM substrate, PIFE (LexA): 130 mM NaCl, 10 mM Tris pH 8, 10% glycerol, 0.005% ….

DNA-LexA yielded a K half in the series with LexA (naked DNA, Cy5-aminoC6-dT internal in reverse strand) of 0.3 nM. As for 601-Gal4-S nucleosome, in series [1] (nucleosome, smFRET kon 0.011 s-1 nM-1, koff 0.32 s-1), the K half was 19.6 nM.

“601-Gal4-S hexasome (H2A-H2B proximal to Gal4 site)” registered a K half in series [1] (hexasome, dimer-proximal site, smFRET kon 0.0052 s-1 nM-1, koff 0.37 s-1) of 47 nM.

Substance “601-LexA-W hexasome (H2A-H2B distal LexA site)” had a K half with LexA (hexasome, dimer-distal site) of 0.25 nM.

Values taken from PMC6582347.
